{"source": "patent US20250154517A1", "molecular_target": "NpuDnaE(C)_Hyg^R (90-341) (Nostoc punctiforme; Escherichia coli)", "assay": "cell-based or functional assay"}
{"substance": "Hyg^R(1-89)-NpuDnaE(N)", "values": [{"measurement": "rooting of co-transformed poplar shoots on root induction medium supplied with Hygromycin", "value": 80, "unit": "%"}]}
